The values below come from publication doi:10.1101/2020.01.06.896597 (bioRxiv, 2020).

The data set “cryo-EM structure” concerns the molecule itself. Put plainly: cryo-EM structure.
Data set [1] deals with the molecule itself. The data set can be described thus: cryo-EM 2D class averages.

B1: full-length (FL) human ACAT1 (enzyme, UniProt P35610 1-550, looked up)
chain: MVGEEKMSLRNRLSKSRENPEEDEDQRNPAKESLETPSNGRIDIKQLIAKKIKLTAEAEELKPFFMKEVGSHFDDFVTNLIEKSASLDNGGCALTTFSVLEGEKNNHRAKDLRAPPEQGKIFIARRSLLDELLEVDHIRTIYHMFIALLILFILSTLVVDYIDEGRLVLEFSLLSYAFGKFPTVVWTWWIMFLSTFSVPYFLFQHWATGYSKSSHPLIRSLFHGFLFMIFQIGVLGFGPTYVVLAYTLPPASRFIIIFEQIRFVMKAHSFVRENVPRVLNSAKEKSSTVPIPTVNQYLYFLFAPTLIYRDSYPRNPTVRWGYVAMKFAQVFGCFFYVYYIFERLCAPLFRNIKQEPFSARVLVLCVFNSILPGVLILFLTFFAFLHCWLNAFAEMLRFGDRMFYKDWWNSTSYSNYYRTWNVVVHDWLYYYAYKDFLWFFSKRFKSAAMLAVFAVSAVVHEYALAVCLSFFYPVLFVLFMFFGMAFNFIVNDSRKKPIWNVLMWTSLFLGNGVLLCFYSQEWYARQHCPLKNPTFLDYVRPRSWTCRYVF
For orientation: stoichiometry N means the number of molecules, sites or subunits per partner or assembly. Regarding B1, the “stoichiometry N” value in the data set “cryo-EM structure” turned out to be 4.

B2: ACAT1-ΔNTD (domain or fragment, human, UniProt P35610 111-550, looked up)
chain: DLRAPPEQGKIFIARRSLLDELLEVDHIRTIYHMFIALLILFILSTLVVDYIDEGRLVLEFSLLSYAFGKFPTVVWTWWIMFLSTFSVPYFLFQHWATGYSKSSHPLIRSLFHGFLFMIFQIGVLGFGPTYVVLAYTLPPASRFIIIFEQIRFVMKAHSFVRENVPRVLNSAKEKSSTVPIPTVNQYLYFLFAPTLIYRDSYPRNPTVRWGYVAMKFAQVFGCFFYVYYIFERLCAPLFRNIKQEPFSARVLVLCVFNSILPGVLILFLTFFAFLHCWLNAFAEMLRFGDRMFYKDWWNSTSYSNYYRTWNVVVHDWLYYYAYKDFLWFFSKRFKSAAMLAVFAVSAVVHEYALAVCLSFFYPVLFVLFMFFGMAFNFIVNDSRKKPIWNVLMWTSLFLGNGVLLCFYSQEWYARQHCPLKNPTFLDYVRPRSWTCRYVF
On to B2, for which the “stoichiometry N” value in data set [1] stood at 2.
